According to US20240000932A1 (BOOSTIMMUNE, published 2024):

Biological target: T1, recombinant human TCTP (translationally controlled tumor protein) (human, UniProt P13693 1-172)
T1 construct: The ELISA is only said to be 'on TCTP', and the screening beads were coated with human TCTP; also called HRF; Tpt1
T1 sequence: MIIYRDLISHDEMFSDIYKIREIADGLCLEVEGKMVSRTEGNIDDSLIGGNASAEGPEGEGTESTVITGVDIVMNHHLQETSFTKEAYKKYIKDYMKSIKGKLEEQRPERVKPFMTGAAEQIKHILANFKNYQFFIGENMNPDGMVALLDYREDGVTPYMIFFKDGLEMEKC
Test: ELISA on TCTP, after single B cell screening with human TCTP coated beads
Description: Transgenic mice for preparing fully human antibodies (CAMOUSE®) were immunized by using a recombinant human TCTP (SEQ ID NO: 36), and standard single B cell screening method was used. Single viable B cell arrays were prepared by applying splenocyte of immunized mice to microarray chips. TCTP-specific antibody secreting single cells were screened on the microarray chip using human TCTP coated beads and then recovered by micromanipulation, mRNA were recovered from the single cells, and cDNA sequences encoding the variable regions of the IgG heavy (VH) and light (VL) chains were amplified by RT-PCR. The recombinant antibodies containing the VH and VL sequences are purified and tested by ELISA on TCTP. As a result, antibody 1-2-4 was obtained. The variable region sequences of antibody 1-2-4 are as follows. The antibody sequences for 1-2-4 were obtained from CAMOUSE® in cooperation with CAMAB (China) and GenScript (China).

B1: anti-TCTP human monoclonal antibody 1-2-4 (antibody, V domains shown)
VH: QVQLVQSGAEVKKPGASVKVSCKASGYTFFSYAMHWVRQAPGQRLEWMGWINAGNGNTKYSQKFQDRVTITRDTSATTAYMELSSLRSEDTAVYYCASWVFDYWGQGTPVTVSS
VL: DIVMTQTPLSSLVTLGQPASISCRSSQSLVHRDGNTYLSWLQQRPGQPPRLLIYKISNRFFGVPDRFSGSGAGTDFTLKISRVEAEDVGVYYCMQATQFPHTFGQGTKLEIK
B1: binds.
